Source: paper PMC10705946, “^225Ac-iPSMA-RGD for Alpha-Therapy Dual Targeting of Stromal/Tumor Cell PSMA and Integrins” (International Journal of Molecular Sciences, 2023)

Columns and labels:
in vitro = conditions: human, diluted human serum (1:5, v/v)
Procedure: After adding 200 μL of ^225Ac-iPSMA-RGD to the diluted human serum (1:5, v/v) in a vial (n = 3), the mixture was kept at 37 °C in a dry bath. At 0.5 h, 1 h, and 3 h intervals, 200 μL of each vial was removed and 1 mL of methanol: acetonitrile (1:1, v/v) was added to precipitate the proteins. The total activity was measured in a NaI(Tl) well-type detector by 218 keV gamma emission of Fr-221 and the solution was centrifuged at 3000 rpm for 5 min. The supernatant was then decanted and the pellet measured to determine ^225Ac binding proteins.

[1] = Absorbed radiation dose estimation (N and dose, OLINDA 2.0); assay type: in vivo, athymic mice
Excerpt: The %ID/organ data were used to calculate the biokinetic models. […] The ^225Ac decay chain was considered for dosimetry. […] DF (dose factor, mGy/MBq) values were obtained from OLINDA 2.0 code (Dose, Gy = NxDF).

HCT116 tumors = assay: Tumor size progression after treatment; assay type: in vivo, mice; conditions: 37 kBq
Procedure: A second group of mice was inoculated subcutaneously with 1 × 10^6 HCT116 cells. After the mice developed a tumor (0.220 ± 0.030 g), they were treated with 3.7 kBq (50 µL) of ^225Ac-iPSMA-RGD (n = 3) via tail vein injection. Animals were necropsied on day 11 post-treatment, as described above.

[2] = Stability in saline solution (0.9% NaCl) and human serum by radio-HPLC; assay type: physicochemical; conditions: in both saline and serum
Procedure: To evaluate the radiochemical purity, a reversed-phase HPLC system with Waters Millenium 32 software coupled to an in-line UV-Vis and radioactivity detector was used, as previously detailed. To recover free ^225Ac and ^225Ac-HEHA-iPSMA, fractions of 1.0 mL were collected, and the activity quantification was through the 218 keV-gamma emission of Fr-221 by assuming secular equilibrium.

in vivo = assay: in vivo
Procedure: All animal procedures followed the Ethical Regulations for the Handling of Laboratory Animals (NOM-062-ZOO-1999) and the requirements of the Institutional Animal Care and Use Committee, according to an approved protocol (CICUAL-08-2018-2021). […] Mice were injected with 3.7 kBq (50 µL) of ^225Ac-iPSMA-RGD and necropsied at 1, 3, 24, 72, and 96 h (n = 3). The liver, heart, kidney, pancreas, lung, spleen, small intestine, and stomach were measured using the Francium-221 photopeak (218 keV) in a hyperpure germanium gamma spectrometer (Ortec, Atlanta, GA, USA). Results were recorded as a percentage of injected dose (%ID) per organ. Blood and bone samples were also dissected, and the associated activity was recorded as %ID/g. A second group of mice was inoculated subcutaneously with 1 × 10^6 HCT116 cells. […] Animals were necropsied on day 11 post-treatment, as described above. Radioisotopic/X-ray ex vivo images of the source organs and tumor were obtained in a preclinical imaging system (Bruker, XTREME, Billerica, MA, USA).

[3] = system: phosphorylated H2A.X in HCT116 cells; assay: DNA double-stranded breaks assay (phosphorylated H2A.X foci); assay type: cell-based, human; conditions: HCT116, 2 Gy and 4 Gy
Procedure: For the evaluation of DNA double-stranded breaks (DSBs), the phosphorylation of the Ser-139 gamma histone variant H2A.X (γH2A.X) was used as a biomarker. HCT116 cells were grown on a glass slide after exposure of 4.5 Bq (2 Gy) and 9.0 Bq (4 Gy) of ^225Ac-iPSMA-RGD for 60 min. The anti-phospho-histone H2A.X (ser139) cl 6L16 ZooMAb (Cat. ZRB05636, Merck, Darmstadt, Germany) antibody was used as the primary antibody. […] To quantify the foci, clear and easily distinguishable dots were counted. At least 30 cells were imaged per slide, and the average number of foci per cell was calculated. Statistical analysis was performed with two-way ANOVA followed by Tukey’s multiple comparisons test using GraphPad Prism 5.0 Software. Data are shown as mean ± SEM. A p < 0.05 was considered statistically significant.

HCT116 cells [4] = assay: Apoptosis, Muse Caspase-3/7 kit with 7-AAD, flow cytometry; assay type: cell-based, human
Procedure: Apoptosis in the colorectal HCT116 cancer cell line was evaluated in triplicate, using the Muse^TM Caspase-3/7 kit, Cat No. MCH100108 (Merck Millipore, Burlington, MA, USA). Briefly, cells were seeded in cell culture flasks at a density of 1 × 10^6 cells and exposed to 4.5 Bq of (2 Gy) and 9.0 Bq […] (4 Gy) of ^225Ac-iPSMA-RGD. Untreated cells were used as the control group and the positive control was prepared through nutrient starvation for 24 h. First, cells were trypsinized and suspended in 50 µL of 1X Assay Buffer BA (1 × 10^6 cells/mL). Then, 5 µL of Caspase-3/7 reagent working solution was added at 37 °C with 5% of CO2 for 30 min. After incubation, 150 µL of Caspase 7-AAD working solution was added to each tube. Finally, tubes were incubated for 5 min, protected from light, and fluorescent intensities were examined by flow cytometry using a Muse Cell Analyzer (Merck Millipore, Burlington, MA, USA) and were conducted in triplicate).

HCT116 cells [5] = assay: Viability (cytotoxicity) assay at 24 h; assay type: cell-based, human; conditions: 2 to 4 Gy
Procedure: Cytotoxic assays were performed in triplicate (n = 6) using HCT116 cells. After harvesting each cell line, 10,000 cells per well were placed in a 96-well plate and incubated at 37 °C to allow adherence. After 24 h, the culture medium was removed, and treatments (2 Gy, 4 Gy) were placed in each well. To deliver 2 and 4 Gy of radiation dose, 6 Bq/well and 12 Bq/well were added and exposed for 15 h. Then, the treatments were removed and replaced with the medium. The cytotoxicity was evaluated at 24 h by using the Cell proliferation assay (Roche Diagnostics GmbH, Mannheim, Germany). Statistical analysis was performed with two-way ANOVA followed by Tukey’s multiple comparisons test using GraphPad Prism 5.0 Software. Data are shown as mean ± SEM. A p < 0.05 was considered statistically significant.

[6] = system: HCT116 colorectal cancer cells; assay: Cellular uptake and internalization, with blocked receptor assay; assay type: cell-based, human
Procedure: The ^225Ac-iPSMA-RGD uptake was performed on HCT116, C6 and PC3 cell lines, which were selected based on their variable PSMA and RGD expression according to previous research by our group and others. Each cell line was diluted to 1 × 10^6 cells with 1 mL of PBS in tubes and incubated at 37 °C with 30 μL of ^225Ac-iPSMA-RGD (20 μL, 70 Bq) for 0.5 h, 1 h and 3 h (n = 6). At each time point, the tubes were centrifuged at 3000 rpm for 5 min and rinsed twice with PBS. The measured activity in a NaI(Tl) well-type detector in the pellet, represents the uptake and internalization. To remove the ^225Ac-iPSMA-RGD at the cell membrane level, 1 mL of 0.2 M CH3COOH /0.5 M NaCl was added and the pellet was resuspended. The tubes were then centrifuged and washed with PBS twice (this activity is considered internalization).

With `N=C(N)NCCC[C@@H]1NC(=O)[C@H](CCCCNC(=O)CCCN2C(=O)CC(SC[C@H](NC(=O)c3ccc(NNC(=S)Nc4ccc(CC5CN(CC(=O)O)CCN(CC(=O)O)CCN(CC(=O)O)CCN(CC(=O)O)CCN(CC(=O)O)CCN5CC(=O)O)cc4)nc3)C(=O)N[C@@H](Cc3ccc4ccccc4c3)C(=O)NCCCC[C@H](NC(=O)N[C@@H](CCC(=O)O)C(=O)O)C(=O)O)C2=O)NC(=O)[C@@H](Cc2ccccc2)NC(=O)[C@H](CC(=O)O)NC(=O)CNC1=O` (stereo partly shown) [^225Ac-iPSMA-RGD, ^225Ac-HEHA-HYNIC-iPSMA-RGD, metal not drawn] the fraction unbound at 3 h (in vitro) was 0.923, the “Radiation Absorbed Dose, Kidney” value ([1]; athymic mice) was 17.63 Gy/37 kBq and the “Radiation Absorbed Dose, Liver” value ([1]; athymic mice) was 15.85 Gy/37 kBq. The “Radiation Absorbed Dose, Tumor” value ([1]; athymic mice, HCT116 tumor) was 237.07 Gy/37 kBq, the “Total nuclear transformations N=∫t=0t=11dAtdt, Tumor” value ([1]; athymic mice, HCT116 tumor, t = 0 to 11 days) was 7.83 MBq·h and the “Total nuclear transformations N=∫t=0t=11dAtdt, Kidney” value ([1]; athymic mice, t = 0 to 11 days) was 3.52 MBq·h. For the same compound, the “Total nuclear transformations N=∫t=0t=11dAtdt, Liver” value ([1]; athymic mice, t = 0 to 11 days) was 5.23 MBq·h, the “Tumor-to-kidney radiation dose ratio” value ([1]; mice, from Table 1) was “thirteen” and the “Tumor-to-liver radiation dose ratio” value ([1]; mice, from Table 1) was “fifteen”. The “Tumor size progression compared to control group (untreated mice)” value (HCT116 tumors; HCT116 tumor-bearing mice) was “significantly lower (p < 0.05)”, the “Tumor size compared to ^225Ac-RGD and ^225Ac-PSMA groups” value (HCT116 tumors; eleven days after administration) was “significantly lower (p < 0.05)” and the “Decrease of radiochemical purity” value ([2]; 5 h after preparation) was 2%. For the same compound, the “Decrease of radiochemical purity” value ([2]; 24 h after preparation) was 10%, the “Decrease of radiochemical purity” value ([2]; 72 h after preparation) was 30% and the Biodistribution pattern (in vivo; healthy mice) was “rapid blood clearance with hepatobiliary and renal elimination and no accumulation in other tissue”. For the same compound, the tissue uptake (in vivo; male, Nu/Nu, mouse, bone, 3.7 kBq, total radioactivity) was 0.5 ± 0.3 %ID/g, the “Average foci of phosphorylated H2A.X” value [3] was 19 and the “Increase in apoptotic/dead cells” value (HCT116 cells [4]; HCT116, 2 Gy) was “approximately 24.6%”. The “Increase in apoptotic/dead cells” value (HCT116 cells [4]; HCT116, 4 Gy) was ~31.2%, the Cell viability (HCT116 cells [5]) was “dose-dependent decrease in cell viability” and the “Uptake and internalization, blocked vs unblocked cell receptors” value ([6]; HCT116 cells, blocking with unlabeled 1 mM iPSMA, RGD and iPSMA-RGD) was “statistically significant difference between blocked and unblocked cell receptors”. The “Radiopharmaceutical uptake in colorectal cancer cells compared to C6 and PC3 cells” value ([6]; HCT116 vs C6 and PC3 cells) was “significantly higher”.
